B1: MFF (parent)
chain: MAEISRIQYEMEYTEGISQRMRVP

Variants of: B1
Test: protein stability index of a GFP-peptide fusion (GPS, HEK-293T) (PSI 1-6); higher = more stable
Settings: c terminus: a fixed tail appended
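Further: lentivirally expressed fusions sorted by FACS into six bins by GFP to DsRed ratio, PSI derived from sequencing read proportions per bin multiplied by bin number.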

In order of rising protein stability index:
1. E12F  1.34
2. Q19L  1.41
3. E15C  1.46
4. R6Y  1.53
5. P24F  1.54
6. Q8F  1.58
7. E10I  1.6
8. E10L  1.66
9. S18I  1.66
10. R20W  1.67
11. V23W  1.7
12. E3I  1.7
13. S5F  1.71
14. S5A  1.72
15. E15M  1.75
16. E12Y  1.76
17. E12A  1.82
18. S18L  1.82
19. R22I  1.84
20. E3A  1.85
21. P24Y  1.85
22. T14I  1.86
23. S5C  1.88
24. G16M  1.88
25. G16L  1.9
26. G16R  1.9
27. Q8C  1.9
28. M21W  1.91
29. E3M  1.91
30. Q8M  1.94
31. S18M  1.94
32. T14W  1.97
33. S18F  1.97
34. E12C  1.98
35. M11W  1.99
36. V23F  1.99
37. E10T  1.99
38. R22W  2.01
39. E3Y  2.01
40. G16C  2.02
41. A2M  2.03
42. G16W  2.04
43. R20I  2.05
44. V23I  2.07
45. G16V  2.07
46. E3T  2.07
47. R20F  2.08
48. E10M  2.08
49. E15A  2.1
50. E15I  2.11
51. Q8K  2.13
52. S18H  2.13
53. E15G  2.15
54. Q19W  2.16
55. P24L  2.16
56. P24A  2.16
57. S5L  2.17
58. A2I  2.17
59. E15F  2.17
60. G16S  2.2
61. Q8R  2.21
62. R20H  2.22
63. T14C  2.24
64. A2C  2.25
65. I17W  2.25
66. R20Q  2.3
67. E3K  2.3
68. V23A  2.31
69. Y13I  2.33
70. T14R  2.35
71. M11F  2.35
72. M1W  2.35
73. I17M  2.35
74. R22N  2.36
75. M11L  2.37
76. E3R  2.39
77. R22C  2.4
78. E12S  2.42
79. E10H  2.42
80. R22Q  2.43
81. R20N  2.46
82. T14H  2.5
83. V23S  2.51
84. Q19E  2.54
85. V23T  2.56
86. P24N  2.56
87. S18T  2.6
88. I17Y  2.62
89. S18Q  2.62
90. I7V  2.64
91. S18P  2.65
92. R20T  2.66
93. E10K  2.66
94. Q19T  2.66
95. Y13M  2.67
96. E10G  2.67
97. P24D  2.7
98. T14S  2.71
99. Y13R  2.71
100. G16K  2.71
101. Q8S  2.71
102. V23G  2.72
103. E10W  2.72
104. T14G  2.75
105. S5R  2.75
106. A2Q  2.76
107. A2K  2.77
108. M21V  2.79
109. I4Y  2.8
110. E12P  2.81
111. R22E  2.86
112. V23C  2.87
113. M21Y  2.9
114. S5E  2.95
115. Y13K  2.96
116. M1K  2.97
117. S18N  2.98
118. M1S  3.01
119. G16D  3.02
120. M11C  3.04
121. E10P  3.04
122. Y9N  3.07
123. A2N  3.09
124. M1R  3.1
125. R20E  3.1
126. Y13V  3.12
127. G16E  3.12
128. E15N  3.14
129. R6K  3.15
130. R6A  3.16
131. I17K  3.18
132. Y13C  3.22
133. Y13H  3.26
134. R6N  3.27
135. M1T  3.28
136. I17N  3.3
137. I4R  3.31
138. Y9A  3.31
139. M21T  3.33
140. I7R  3.33
141. R6G  3.36
142. R6P  3.36
143. I7P  3.37
144. I4G  3.4
145. I17H  3.4
146. I7T  3.4
147. I4D  3.41
148. M21D  3.41
149. P24T  3.42
150. I7S  3.51
151. I4M  3.56
152. R20D  3.56
153. I17P  3.57
154. Y9P  3.57
155. M21P  3.59
156. I4C  3.6
157. M21H  3.6
158. Y9E  3.6
159. M21K  3.73
160. M11N  3.78
161. Y13S  3.79
162. I4Q  3.8
163. I17D  3.95
164. M1E  4.04
165. M11E  4.06
166. I4E  4.08
167. I7E  4.11
